According to paper PMC4461284, “Different Modes of Transactivation of Bacteriophage Mu Late Promoters by Transcription Factor C”:

Biological target: RNA polymerase (RNAP), WT (E. coli, UniProt P0A7Z4;P0A8V2;P0A8T7;P0A800;P00579 1-329;1-1342;1-1407;2-91;1-613)
Assay: EMSA; no C protein; on ice (closed complex); EMSA: on ice 10 min, 3.5% native PAGE at 4 C; binding buffer not stated (transcription buffer: 40 mM Tris-Cl pH 8.0, 5 mM Mg acetate, 0.1 mM EDTA, 0.1 mM DTT, 100 mM KCl, 100 ug/ml BSA)
Conditions: protein: recombinant, (Ni-NTA purified), chain copies: 2;1;1;1;1, label: 5' 32P
[1] = 5' overhangs 4 nt (EcoRI AATT / BamHI GATC)

B1: lys promoter 92mer (dsDNA)
DNA 1: AATTCATCCTGCCGGTTATTTCCTGTCACCATAATCCCGCACCTGCCACCTGATTTTTTAGACTGCCATCAGAGAATTTTTTCAGGGAAGCG
DNA 2: GATCCGCTTCCCTGAAAAAATTCTCTGATGGCAGTCTAAAAAATCAGGTGGCAGGTGCGGGATTATGGTGACAGGAAATAACCGGCAGGATG
**Q.** Does B1 bind [1]?
**A.** Result: binds

B2: I promoter 92mer (dsDNA)
DNA 1: AATTCTTTCTTTCTCCAGTACTCAAATAGCATAACCCCAGATTTTCCCGCACCTCCCGCAAACTGACTGCTCACAAACCATGATGAGCAGCGG
DNA 2: GATCCCGCTGCTCATCATGGTTTGTGAGCAGTCAGTTTGCGGGAGGTGCGGGAAAATCTGGGGTTATGCTATTTGAGTACTGGAGAAAGAAAG
**Q.** Does B2 bind [1]?
**A.** Result: binds

B3: P promoter 92mer (dsDNA)
DNA 1: AATTCACAGGGACAGTTACAGTTAACTGCCATAACCCCGGACGGCGGCTTTTCACAGGTATCCTTTTCAGACAGTGGTACAGCCACGCCCCG
DNA 2: GATCCGGGGCGTGGCTGTACCACTGTCTGAAAAGGATACCTGTGAAAAGCCGCCGTCCGGGGTTATGGCAGTTAACTGTAACTGTCCCTGTG
**Q.** Does B3 bind [1]?
**A.** Result: binds

B4: tin7 P2-disrupted promoter 78mer (dsDNA)
DNA 1: AATTCCGGTTGCGCCCCAATAACCACACTCAACCCATGATGTTTGTTAAGATAGTGGCGAATTGATGCAAAGGAGGTG
DNA 2: GATCCACCTCCTTTGCATCAATTCGCCACTATCTTAACAAACATCATGGGTTGAGTGTGTGGTTATTGGGGCGCAACCGGG
**Q.** Does B4 bind (5' overhangs (EcoRI AATT / BamHI GATC))?
**A.** Result: binds
